Data reported in a protein production outcome set (Wang et al. 2014).

Test: label from the status in PepcDB records

Question: With “MRCLRHARRQSQGVRGGRGMARADRGDGDGDAEAEDGRHSTASDARLTQLLRTDTATAYPALRELRTRHRPAVLGYARLCTVDDAAARRLTAQAFALAARDTARGSDPRGPWRHQLLLLAGRVAASWAADERAARLDPDLLAHLGAAGSRAQVPPLLAAFQSLPSRVQGVVWYAVVEGEPDDRTADFVGLTREDVTYGTEPAFQSLRQSCLTTRLAASDDPRCQDFRRLIEESVRPDNPRYSADLHAHMVHCVYCATAYDELSALRDDPRTALAAGLLAWGGAAYVTGGAVTRRAVAGGPGPSGPGPGDPGPGPAPGWWPSRRFVLASTALGVALIPFLAYLLVSGGPEPERAANAVATPSRPPAVTVTATVSATPSPSPSHTAGKSPKPSRSPSASKTTRPPSPKPSPKPPAPHPPNGSFAQVVNADSGLCLDIRDGVMDLGTDVVTAPCTSSRTQRWRVDTARGVLQSSEDPDFCLDSRGSTDRGVGIWECGAVYGRNGRNLRFTVDAQGVIRPAVAPDHAVTPYGDALFLVPAEGRAAQRWRAGAA” as the sequence, how does the protein production read?
Answer: The protein production was “failed”.

Question: With “MRCRFPYDGKQRIILEEGYPVYECNKFCGCSRTCQNRVLQNGIRAKLEVFRTESKGWGLRACEHILRGTFVCEYIGEVLDQQEANKRRNQYGNGDCSYILDIDANINDIGRLMEEELDYAIDATTHGNISRFINHSCSPNLVNHQVIVESMESPLAHIGLYASMDIAAGEEITRDYGRRPVPSEQENEHPCHCKATNCRGLLS” as the sequence, how does the protein production read?
Answer: The protein production was “failed”.

Question: With “MRDMEFIEWYPRGYGVAFKVKRKILEEQSEYQKIEVYETEGFGKLLAIDGTVQLVTEGEKSYHEPLVHPAMLAHPNPRRVLIIGGGDGGAIREVLKHEEVEEVIMVEIDKKVIEISAKYIGIDGGILEKMLSDKHEKGKLIIGDGVKFIEENSGFDVIIVDSTDPVGPAEMLFSEEFYKNAYRALNDPGIYVTQAGSVYLFTDEFLTAYRKMRKVFDKVYYYSFPVIGYASPWAFLVGVKGSIDFMKVDAEKGKKLGLEYYDPDKHETLFQMPRYIVQML” as the sequence, how does the protein production read?
Answer: Its protein production is “not failed”.

Question: With “MRDPVSRLPNREQFQSDLYDLADENPGERRVLVLVDAVDMTVAHELTLAMGLAPFETIVRFLAQQLLAYLGRHVRVYHVSVKRFGFLLPAAPGIERFLESLVRRLRRQPPGLELPMIPGVCAGTVEFSTDRDAVPDVLRKAMFALELATLNRSTWAPYDVVRLEHHHHHH” as the sequence, how does the protein production read?
Answer: Its protein production is “failed”.

Question: With “MRDTGTSESNRSGDVVLGDDWVAPHSTVSKELRVKRARRSLFSLRGSPLTRKIITFNLIALIILVAGILYLNDARNGLVVQRAGALVGETQLVADVFEAQITGSAPVNLATGDGVDVDATLEDLSLRRGVEVFVFDTARNMVGQTKGTHVNPRLQALFEDKTGSTIITDALSGLWRAVSSIFANAPKSSAPALEQQIASLLPEALAGETRVETVLNTAGGTVIAAATPILQAGTPIGAVAMASPAGEIDALARRDRERVLQMFVVALLVSVGLSLVLASTIANPLADLAEAAELGRDRNSRRMNPGRIRIPDLSARPDEIGRLSRALRGMVSALYNRIEGNEQFAADVAHEIKNPLASLQSAVGTLRMVRREDQRDKLLSVIEHDVRRLDRLVSDISNASRLDAELVKEEEQSFNLLTMLDNLNQYLGEDARSKGIDYITDMPPDPIMIQGLEARLAQVFVNLITNAISFCEDGDAIRVWTRRRANRVLIVVEDTGPGIPDEALAKIFKRFYSQRPEEHFGNNSGLGLAISKQIVEAHGGVIWAENIRPTEADVTSDPLGARFVVGLPI” as the sequence, how does the protein production read?
Answer: The protein production was “not failed”.

Question: For “MRDVIIALLPATIFGIINFEINAMILILTCVVSCVLFEWLYQKMMNRKVTIYDLSAVVTGLLLALNLSPDVPIWMAILGSAFAIIIVKQLFGGLGFNFMNPALGARCFLLISFAGRMTSFSYDGVTTATPLAVLKNTGDLANVNVLHMFLGNIPGTIGETSVVCILVGAAYLLIRRVIKPVIPLTYIGTFAVLIMIYALASGRGFDLTFLAAHLCGGGLMLGAFFMATDYVTSPITPAGKVVFGVILGILTFCFRIYGGSAEGVSYAIIFSNLLVPLIERWTQPKSFGEGAELAAQGDTSGTKSKMDTRSIIIATIAIMIITVIAGFALAYVYKVTKDPIAVTEQKAKEEAYKAVFGDADSFDSYSDFDADAAAKVLKDAGYNADIDEVVEAKNSDGSVLGYVVTVTSHEAYSGDLQLAMGVRTDGTTNGISFLSLSETAGLGMEADTDSFKSQFAGKKVDKFKYTKSGATVDEEIDALSGATITTNAVTNAVDAGLEYVKSINGGAADPSNALDETDASNGGDK”, which protein production is on record?
Answer: Its protein production is “failed”.

Question: Which protein production does the source give for “MREEELNTEKVVAAIANPVENEVRKVWEDVVEKIEQRVAVIEQASHKLLQNKVSEEILSKAKVEAHKLAGSLGMFGSDEGSQIAQEIESLLDNGKKLKASGGKHLGQVVEALHQELENLKSGLEHHHHHH” here?
Answer: Its protein production is “not failed”.

Question: Which protein production does the source give for “MREHFVNEFMAVLSNKLTEDALSIVYQSLTLFVSNYEISERNTEVVPYTGYLPECYETYFVTRKIEGMSMKSLELYNLVLKDFFFKLNKEICKISTNDIRVYLYKNQQERNLSNSTLDTKRTIIHAFFEWAANEGYIGSNPCRNIKPIKYERPKRKPLTGIELEKVRNACDNLKDKALLELFYSTGCRVTEMERLDISDIDFQTKEVLLFGKGDKHRISYLNAKAEIAIRNYLDSRNDNEEALFVSDRKPYGRLKKPAIEKRIRVLGEKSGIGRRLYPHLIRHTTATDGLDRGMPVEEVQQILGHVNIATTMIYAEVSRANVKNNHRKCIV” here?
Answer: The protein production was “failed”.

Question: With “MRERLFANVRLRLSGGRQAAYISRAMSAAPDLRDPPPAHVRRLDPILVDRIAAGEVVERPASAVKELVENAIDAGARSIEVAIEGGGRRLIRVVDDGIGMGPDDLALAVERHATSKLPDGDLTRIGSLGFRGEALPSIGAVSRLTITSRTADGEGVSLTLDSGVKGPVRPAPASRGTRIEVTELFAATPARLKFLKTDRAETAAVSEILRRLAVAQPRIRFTLRTESGSPTVFPAESEPGPAALLRRLGAVLGPDFPGNAVPVDMAREGFALAGHVGLPTFHRGAASHIHFVVNGRPVRDRLLLGAVRGAYADTMSSDRHPVLALHLTCDPALVDVNVHPAKTELRFREPGLVRALIVSAIHEALRRAGARSSSTGTQAVLDALRAGAGMGSAPPMAAGVGRFAVHSGASTASALNPRPASRLFSGPSVAAPAGYRPAPRPAFTEDHPGFAETPQALFSADLAPPGADLRPEPEAVSEAETHPEAHPLGAARAQIHETYIVAQTRDGIVLVDQHAAHERLVYERLKSERAGGGVLAQGLLIPDVVEMAPEEADRLVEAAPELERLGLTLEAFGPGAVLVRSVPSALAGGSVKGLVLDVLDALAASGVEEGGPAGAGDPDPVSRRLDAILSRMSCHGSIRAGRRLKPEEMNALLREMEATPLSGSCNHGRPTFVSLGLADIERLFGRR” as the sequence, how does the protein production read?
Answer: Its protein production is “failed”.

Question: With “MRERRFTSDAAHELRSPLTALKVQTEVAQLSDDDPQARKKALLQLHSGIDRATRLVDQLLTLSRLDSLDNLQDVAEIPLEDLLQSSVMDIYHTAQQAKIDVRLTLNAHSIKRTGQPLLLSLLVRNLLDNAVRYSPQGSVVDVTLNADNFIVRDNGPGVTPEALARIGERFYRPPGQTATGSGLGLSIVQRIAKLHGMNVEFGNAEQGGFEAKVSW” as the sequence, how does the protein production read?
Answer: The protein production was “not failed”.

Question: For “MRFFVFLKTLQSRSFCIFQQSFLLFFTSFFIIFVSNLCFISRGYGQNPPSLPAEPPSPQLLLPLDDLIPNDPSSAPAEPNSDSAATILEDFDAVHQSYAQRTEQRKEAEILRLLKELKFCADVEKARKISQQLQRLWSQSGSETIDLLMLWAENAINADNYGLALDYIDNALALLPTYAEGWIRRAWVHIQLSDFKLAMLDLNHALKLEPRNYIAFFELGITMEATERPKLALKAYETALEYYPQMQKVQKRIEELLDKQSPQAL”, which protein production is on record?
Answer: The protein production was “failed”.

Question: With “MRFGRFLAVVACATLLAACASTPTPPAGELSGTPTALESGPKKDPLNTLNSTGRAGTLSRSTVVNVDQSSVDWLRGPSSDIWDRIRKGFAMPDLEGTLVDDRTQWYAARPDYMERMVGRSSRYLYHIVEELERRKMPTELALLPFVESAFNPQAESTAKAAGMWQFIPSTGKTYNLKQNMFRDERRDVLASTDAALDYLQRLYDMFGDWQLALAAYNWGEGAVSRAIARNQARGLPTDYASLTMPTETRYYVPKLQAVKNIIANPAAYGVRLPEIPDHPYFVTVTTSRDIDVALAAKLANMPLDEFKALNPSFNRPVILGAANPQILLPFENAERFQYNLNTYRGGLSSWTAVTVDSRERVESLAARLNVDVDTLREINRIPKGMRLKAGSTVMIPRTERHDQDISASLVDTAMLAVEPDVPDAKRVVVRAGRKDTVSTVARRYGVSVKQVQSWNKLSGSKLVAGQSLVLMLRPNSAAAMRAERAGDEDDTPAKAAPHGKSGGKTQAVAKSEKYDKVEKSSRSAKAEPRKRVVVEASPHSSTSKSSGKSATRESKSSPTPATKSKSSRAQ” as the sequence, how does the protein production read?
Answer: Its protein production is “failed”.

Question: With “MRFKISLTTRLSLIFSAVMLTVWWLSSFILISTLNDYFDNQDRDFLTGKLQLTEEFLKTETFRNKTDIKSLSEKINDAMVGHNGLFISIKNMENEKIVELYAKNSVVPAVLLNKSGDILDYMIQTEENNTVYRSISRRVAVTPEQGKSKHVIITVATDTGYHTLLMDKLSTWLFWFNIGLVFISVFLGWLTTRIGLKPLREMTSLASSMTVHSLDQRLNPDLAPPEISETMQEFNNMFDRLEGAFRKLSDFSSDIAHELRTPVSNLMMQTQFALAKERDVSHYREILFANLEELKRLSRMTSDMLFLARSEHGLLRLDKHDVDLAAELNELRELFEPLADETGKTITVEGEGVVAGDSDMLRRAFSNLLSNAIKYSPDNTCTAIHLERDSDCVNVMITNTMSGQVPANLERLFDRFYRADSSRFYNTEGAGLGLSITRSIIHAHGGELSAEQQGREIVFKVRLLMD” as the sequence, how does the protein production read?
Answer: Its protein production is “failed”.

Question: For “MRFPVLSRFLHPDPRIRRELVELLYTSLPQVMAIGVTSVTGALALTLLGDDPGYAVITFFILVTATARVFSLMRYKARAARFTDADVVRWERLYGAGATAFGLALGALSFRALQLGDAPGAWIAFGLSMSYCVGMVSRAAIRPWIILTAAAALLMPTMIAGLMRPELAYKIGAGMLVLFWLTLREASKHLSAAFTERLEAKHRLARQATHDFLTDLPNRAGFLQALSDMAGNFTVVAIDLDGFKPINDRHGHHTGDDLLRQVAERLTTCVGADGVAARFGGDEFMLLKPVTSAEQGRDEALALARKAVFDLSMPYLLADLPVCIGASAGIAISHAALAGGNTAQLLERVDRALYVAKRAGGGCAWADGDIEPSCCPRSTPLAKDSAAA”, which protein production is on record?
Answer: The protein production was “failed”.

Question: Which protein production does the source give for “MRFRFGVVVPPAVAGARPELLVVGSRPELGRWEPRGAVRLRPAGTAAGDGALALQEPGLWLGEVELAAEEAAQDGAEPGRVDTFWYKFLKREPGGELSWEGNGPHHDRCCTYNENNLVDGVYCLPIGHWIEATGHTNEMKHTTDFYFNIAGHQAMHYSRILPNIWLGSCPRQVEHVTIKLKHELGITAVMNFQTEWDIVQNSSGCNRYPEPMTPDTMIKLYREEGLAYIWMPTPDMSTEGRVQMLPQAVCLLHALLEKGHIVYVHCNAGVGRSTAAVCGWLQYVMGWNLRKVQYFLMAKRPAVYIDEEALARAQEDFFQKFGKVRSSVCSL” here?
Answer: Its protein production is “failed”.

Question: Which protein production does the source give for “MRFRYAMVCSSNQNRSMEAHALLKRQGLDVASYGTGSHVKLPGPSLREPNVYDFGTPYKQMFDELRRKDPELYKRNGILQMIKRNLSVKLAPQRWQDNAGDGVFDVVMTFEEKVFDSVLEDLNNREQSLTKTILVMNLEVKDNHEEAAIGGRLALELCQEIEGNETWEDTIDDIVAGFEKQHRRKLVYSISFY” here?
Answer: Its protein production is “failed”.

Question: With “MRFSREALLELEASRLAPYAQKARDTRGRAHPEPESLYRTPYQKDRDRILHTTAFRRLEYKTQVLPGWAGDYYRTRLTHTLEVAQVSRSIARALGLNEDLTEAIALSHDLGHPPFGHTGEHVLNALMQDHGGFEHNAQALRILTHLEVRYPGFRGLNLTYEVLEGIATHEAAYSPGFKPLYEGQGTLEAQVVDLSDAIAYAAHDLDDGLRAGLLHPEELKEVELLQALALEEGLDLLRLPELDRRVLVRQLLGYFITAAIEATHRRVEEAGVQSAEAVRRHPSRLAALGEEAEKALKALKAFLMERFYRHPEVLRERRKAEAVLEGLFAAYTRYPELLPREVQAKIPEEGLERAVCDYIAGMTDRFALEAYRRLSP” as the sequence, how does the protein production read?
Answer: The protein production was “not failed”.
